Measured values reported in patent US20240116985A1, “STAPLED PEPTIDES AND METHODS THEREOF” (priority 2020, published 2024).
One block for each binder: values may come before it. Starred links: 1 amine or outer side, 2 acyl side, 3 side chain; linkers in the order of their positions; H or OH if unused. Positions of bridges follow the written chain, without caps; N, C: chain ends. Non-standard residues stand in square brackets, D forms with d. Primed or numbered codes have the meaning given here. *: point of attachment. PyrS2″ = (S)-3-amino-1-((pent-4-en-1-yloxy)carbonyl)pyrrolidine-3-carboxylic acid (stapling residue), C=CCCCOC(=O)N1CC[C@@](N[*:1])(C(=O)[*:2])C1; B5(4) = 2,2-bis(4-pentenyl)glycine = 2-amino-2-(pent-4-en-1-yl)hept-6-enoic acid (stitching residue), C=CCCCC(CCCC=C)(N[*:1])C(=O)[*:2]; B5(8) = 2,2-bis(4-pentenyl)glycine (2-amino-2-(pent-4-en-1-yl)hept-6-enoic acid, stitching residue), C=CCCCC(CCCC=C)(N[*:1])C(=O)[*:2]; TfeGA = (S)-2-amino-3-((carboxymethyl)(2,2,2-trifluoroethyl)amino)propanoic acid, O=C([C@H](CN(CC(=O)[*:3])CC(F)(F)F)N[*:1])[*:2]; PyrS2 = (S)-3-amino-1-((pent-4-en-1-yloxy)carbonyl)pyrrolidine-3-carboxylic acid, C=CCCCOC(=O)N1CC[C@@](N[*:1])(C(=O)[*:2])C1; B5(12) = 2-amino-2-(pent-4-en-1-yl)hept-6-enoic acid (two olefin side chains), C=CCCCC(CCCC=C)(N[*:1])C(=O)[*:2]; B5(13) = 2-amino-2-(pent-4-en-1-yl)hept-6-enoic acid (two alkene chains), C=CCCCC(CCCC=C)(N[*:1])C(=O)[*:2]; B5(3) = 2,2-bis(4-pentenyl)glycine (stitching residue), C=CCCCC(CCCC=C)(N[*:1])C(=O)[*:2]; B5 = 2-amino-2-(pent-4-en-1-yl)hept-6-enoic acid, C=CCCCC(CCCC=C)(N[*:1])C(=O)[*:2]; 4pentenyl = N-terminal pent-4-enoic acid (acyl cap), C=CCCC(=O)*; Phe(4-COOH) = N[C@@H](Cc1ccc(C(=O)O)cc1)C(=O)O; Phe(2-Cl) = N[C@@H](Cc1ccccc1Cl)C(=O)O; 2Nal = N[C@@H](Cc1ccc2ccccc2c1)C(=O)O; Bta = N[C@@H](Cc1csc2ccccc12)C(=O)O; αAllylPro = C=CC[C@@]1(C(=O)O)CCCN1; tBuAla = CC(C)(C)C[C@H](N)C(=O)O; 3Thi = N[C@@H](Cc1ccsc1)C(=O)O; S8 = C=CCCCCCC[C@](C)(N)C(=O)O; hSer = N[C@@H](CCO)C(=O)O

What was measured:
[1] = molecular target: Bcat-Halo (beta-catenin HaloTag construct expressed in HEK293 cells) (UniProt P35222); test: NanoBRET in HEK293 cells, percent inhibition at 10 uM peptide; Bcat-Halo with TCF4-Luc as competitor
[2] = molecular target: full-length beta-Catenin (Uniprot ID P35222) (Homo sapiens (Human)) (UniProt P35222); test: fluorescence polarization competition; 10 nM full-length beta-catenin with 10 nM 5FAM-TCF4 (residues 10-53) probe as competitor
Target sequence in this assay (P35222 2-781 limits assumed): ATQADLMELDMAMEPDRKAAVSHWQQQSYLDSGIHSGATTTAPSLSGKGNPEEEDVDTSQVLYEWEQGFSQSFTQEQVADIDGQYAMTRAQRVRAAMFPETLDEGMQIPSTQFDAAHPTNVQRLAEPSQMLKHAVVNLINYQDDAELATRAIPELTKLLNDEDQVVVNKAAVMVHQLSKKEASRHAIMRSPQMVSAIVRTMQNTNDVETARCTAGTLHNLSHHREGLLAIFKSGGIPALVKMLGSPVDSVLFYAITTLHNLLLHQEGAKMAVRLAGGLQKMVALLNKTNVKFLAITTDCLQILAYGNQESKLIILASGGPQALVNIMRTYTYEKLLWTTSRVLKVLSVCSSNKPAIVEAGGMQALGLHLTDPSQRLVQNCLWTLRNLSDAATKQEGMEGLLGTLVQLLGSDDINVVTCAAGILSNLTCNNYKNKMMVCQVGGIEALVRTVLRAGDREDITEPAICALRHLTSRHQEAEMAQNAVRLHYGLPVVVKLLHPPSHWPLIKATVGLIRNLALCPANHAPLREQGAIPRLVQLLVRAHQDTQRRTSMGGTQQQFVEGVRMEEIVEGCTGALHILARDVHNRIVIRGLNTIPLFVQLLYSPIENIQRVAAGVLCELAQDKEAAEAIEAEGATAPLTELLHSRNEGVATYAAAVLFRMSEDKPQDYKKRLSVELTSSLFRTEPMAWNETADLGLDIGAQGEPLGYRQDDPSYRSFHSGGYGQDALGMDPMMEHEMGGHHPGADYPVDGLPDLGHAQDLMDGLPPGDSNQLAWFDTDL

[3] = molecular target: full-length beta-Catenin (Uniprot ID P35222) (Homo sapiens (Human)) (UniProt P35222); test: fluorescence polarization competition; displacement of 5FAM-TCF4(10-53) from full-length beta-catenin
Target sequence in this assay (P35222 whole entry, the tested form may be a part, one chain of several): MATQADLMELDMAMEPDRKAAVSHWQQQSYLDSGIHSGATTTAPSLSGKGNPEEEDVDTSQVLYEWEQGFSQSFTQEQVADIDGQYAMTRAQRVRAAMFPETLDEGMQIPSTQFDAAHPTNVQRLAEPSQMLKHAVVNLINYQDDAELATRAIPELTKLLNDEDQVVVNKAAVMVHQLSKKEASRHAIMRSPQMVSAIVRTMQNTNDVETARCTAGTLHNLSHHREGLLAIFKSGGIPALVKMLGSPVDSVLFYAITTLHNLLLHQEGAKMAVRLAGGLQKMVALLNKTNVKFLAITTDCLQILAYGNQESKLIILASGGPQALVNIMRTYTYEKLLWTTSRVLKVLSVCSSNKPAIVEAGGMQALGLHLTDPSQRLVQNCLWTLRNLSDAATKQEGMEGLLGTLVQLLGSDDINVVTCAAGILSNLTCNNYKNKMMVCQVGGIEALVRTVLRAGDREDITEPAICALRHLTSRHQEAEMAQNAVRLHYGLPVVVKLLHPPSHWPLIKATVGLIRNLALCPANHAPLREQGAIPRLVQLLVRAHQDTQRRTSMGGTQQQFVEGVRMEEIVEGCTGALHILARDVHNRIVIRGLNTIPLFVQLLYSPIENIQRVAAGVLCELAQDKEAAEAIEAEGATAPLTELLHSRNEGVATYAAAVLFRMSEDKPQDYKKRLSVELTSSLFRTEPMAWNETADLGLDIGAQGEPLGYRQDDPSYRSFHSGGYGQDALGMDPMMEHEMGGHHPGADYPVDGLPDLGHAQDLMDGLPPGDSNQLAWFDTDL

[4] = molecular target: full-length beta-Catenin (Uniprot ID P35222) (Homo sapiens (Human)) (UniProt P35222); test: fluorescence polarization competition against 5FAM TCF4 10-53 probe
Target sequence in this assay (P35222 whole entry, the tested form may be a part, one chain of several): as above

[5] = molecular target: Bcat-Halo (UniProt P35222); test: NanoBRET in HEK293 cells, B-cat-Halo/TCF4-Luc, absolute IC50
[6] = molecular target: Bcat-Halo (UniProt P35222); test: NanoBRET Abs IC50 in HEK293 cells; Bcat-Halo, competitor TCF4-Luc
[7] = molecular target: full-length beta-Catenin (Uniprot ID P35222) (Homo sapiens (Human)) (UniProt P35222); test: fluorescence polarization competition; full-length beta-catenin, competitor 5FAM-TCF4(10-53) probe
[8] = molecular target: full-length beta-Catenin (Uniprot ID P35222) (Homo sapiens (Human)) (UniProt P35222); test: fluorescence polarization competition, full-length beta-catenin with 5FAM-TCF4(10-53) probe as competitor
Target sequence in this assay (P35222 2-781 limits assumed): as the sequence (P35222 2-781 limits assumed) above

[9] = molecular target: Bcat-Halo (UniProt P35222); test: NanoBRET Abs IC50 (absolute IC50) in HEK293 cells, Bcat-Halo / TCF4-Luc engagement
[10] = molecular target: full-length beta-Catenin (Uniprot ID P35222) (Homo sapiens (Human)) (UniProt P35222); test: fluorescence polarization competition; 10 nM full-length beta-catenin; competitor 5FAM-TCF4 10-53 probe
Target sequence in this assay (P35222 whole entry, the tested form may be a part, one chain of several): as the sequence (P35222 whole entry, the tested form may be a part, one chain of several) above

[11] = molecular target: full-length beta-Catenin (Uniprot ID P35222) (Homo sapiens (Human)) (UniProt P35222); test: fluorescence polarization competition, full-length beta-catenin with 5FAM-TCF4(10-53) probe
Target sequence in this assay (P35222 2-781 limits assumed): as the sequence (P35222 2-781 limits assumed) above

[12] = molecular target: full-length beta-Catenin (Uniprot ID P35222) (Homo sapiens (Human)) (UniProt P35222); test: AlphaScreen competition; full-length beta-catenin with biotin-TCF4(10-53) probe as competitor
Target sequence in this assay (P35222 2-781 limits assumed): as above

[13] = molecular target: beta-catenin (full-length, Uniprot ID P35222) (Homo sapiens (Human)) (UniProt P35222); test: fluorescence polarization competition, displacement of 5FAM-TCF4 10-53 from full-length beta-catenin
Target sequence in this assay (P35222 2-781 limits assumed): as above

[14] = molecular target: full-length beta-Catenin (Uniprot ID P35222) (Homo sapiens (Human)) (UniProt P35222); test: fluorescence polarization competition; full-length beta-catenin, 5FAM-TCF4(10-53) probe
Target sequence in this assay (P35222 2-781 limits assumed): as above

[15] = molecular target: Bcat-Halo (UniProt P35222); test: NanoBRET Abs IC50; HEK293 cells transfected with B-cat-Halo and TCF4-Luc
[16] = molecular target: full-length beta-Catenin (Uniprot ID P35222) (Homo sapiens (Human)) (UniProt P35222); test: FP competition; full-length beta-catenin, competitor 5FAM-TCF4(10-53)
Target sequence in this assay (P35222 whole entry, the tested form may be a part, one chain of several): as the sequence (P35222 whole entry, the tested form may be a part, one chain of several) above

[17] = molecular target: full-length beta-Catenin (Uniprot ID P35222) (Homo sapiens (Human)) (UniProt P35222); test: fluorescence polarization competition; full-length beta-catenin + 5FAM-TCF4 10-53 probe, peptide titrated
Target sequence in this assay (P35222 2-781 limits assumed): as the sequence (P35222 2-781 limits assumed) above

[18] = molecular target: Bcat-Halo (UniProt P35222); test: NanoBRET in HEK293 cells, Bcat-Halo / TCF4-Luc; absolute IC50
[19] = molecular target: Bcat-Halo (UniProt P35222); test: NanoBRET in HEK293 cells, Bcat-Halo/TCF4-Luc (competitor TCF4-Luc); IC50
[20] = molecular target: Bcat-Halo (UniProt P35222); test: NanoBRET in HEK293 cells, Bcat-Halo/TCF4-Luc (competitor TCF4-Luc); percent inhibition at 10 uM peptide
[21] = molecular target: full-length beta-Catenin (Uniprot ID P35222) (Homo sapiens (Human)) (UniProt P35222); test: fluorescence polarization competition; peptide displaces 5FAM-TCF4(10-53) from full-length beta-catenin
[22] = molecular target: full-length beta-Catenin (Uniprot ID P35222) (Homo sapiens (Human)) (UniProt P35222); test: fluorescence polarization competition; full-length beta-catenin; competitor displaced: 5FAM-TCF4 10-53
[23] = molecular target: full-length beta-Catenin (Uniprot ID P35222) (Homo sapiens (Human)) (UniProt P35222); test: fluorescence polarization competition; full-length beta-catenin + 5FAM-TCF4(10-53) probe; peptide titrated
[24] = molecular target: Bcat-Halo (UniProt P35222); test: NanoBRET in HEK293 cells, Bcat-Halo / TCF4-Luc; peptide at 10 uM; competitor TCF4-Luc
[25] = molecular target: full-length beta-Catenin (Uniprot ID P35222) (Homo sapiens (Human)) (UniProt P35222); test: fluorescence polarization competition; 10 nM full-length beta-catenin + 10 nM 5FAM-TCF4(10-53) as competitor probe; peptide titrated (top concentration 10 uM)
[26] = molecular target: full-length beta-Catenin (Uniprot ID P35222) (Homo sapiens (Human)) (UniProt P35222); test: AlphaScreen competition vs biotin-TCF4(10-53) on full-length beta-catenin
Target sequence in this assay (P35222 whole entry, the tested form may be a part, one chain of several): as the sequence (P35222 whole entry, the tested form may be a part, one chain of several) above

[27] = molecular target: full-length beta-Catenin (Uniprot ID P35222) (Homo sapiens (Human)) (UniProt P35222); test: FP competition vs 5FAM-TCF4(10-53) probe on full-length beta-catenin
Target sequence in this assay (P35222 whole entry, the tested form may be a part, one chain of several): as above

[28] = molecular target: full-length beta-Catenin (Uniprot ID P35222) (Homo sapiens (Human)) (UniProt P35222); test: fluorescence polarization competition vs 5FAM-TCF4(10-53) on full-length beta-catenin
[29] = molecular target: full-length beta-Catenin (Uniprot ID P35222) (Homo sapiens (Human)) (UniProt P35222); test: fluorescence polarization competition; peptide titrated against full-length beta-catenin + 5FAM-TCF4(10-53) probe
[30] = molecular target: beta-catenin (full-length, Uniprot ID P35222) (Homo sapiens (Human)) (UniProt P35222); test: fluorescence polarization competition; full-length beta-catenin; competitor 5FAM-TCF4(10-53) probe
Target sequence in this assay (P35222 whole entry, one chain of several): as the sequence (P35222 whole entry, the tested form may be a part, one chain of several) above

[31] = molecular target: full-length beta-Catenin (Uniprot ID P35222) (Homo sapiens (Human)) (UniProt P35222); test: fluorescence polarization competition; 5FAM-TCF4 10-53 probe on full-length beta-catenin
[32] = molecular target: full-length beta-Catenin (Uniprot ID P35222) (Homo sapiens (Human)) (UniProt P35222); test: fluorescence polarization competition, peptide titrated against full-length beta-catenin + 5FAM-TCF4(10-53)
[33] = molecular target: Bcat-Halo (UniProt P35222); test: NanoBRET Abs IC50; Bcat-Halo/TCF4-Luc engagement in HEK293 cells

Bcat-Halo, sequence (P35222 whole entry): as the sequence (P35222 whole entry, the tested form may be a part, one chain of several) above
Bcat-Halo (beta-catenin HaloTag construct expressed in HEK293 cells), sequence (P35222 whole entry, the tested form may be a part): as the sequence (P35222 whole entry, the tested form may be a part, one chain of several) above

Binder: Ac-[αAllylPro]D[tBuAla][B5(4)]DLAAFN[PyrS2][3Thi][Bta]Q-NH2 (staple 1-4, 4-11) [I-846]
NanoBRET % inh @ 10 uM [1]: 4.3% | EC50 [2]: 35 nM | IC50 [3]: 56 nM

Binder: Ac-[αAllylPro]D[tBuAla][B5(4)]DEAAFN[S8]F[Bta]Q-NH2 (staple 1-4, 4-11) [I-677]
IC50 [6]: 6700 nM | IC50 [7]: 22 nM | EC50 [8]: 22 nM

Binder: Ac-[αAllylPro]DA[B5(12)]DEAAFV[S8]F[2Nal]-NH2 (staple 1-4, 4-11) [I-141]
EC50 [12]: 5450 nM

Binder: Ac-[αAllylPro]DA[B5(4)]D[TfeGA]AAFV[S8]F[Bta]Q-NH2 (staple 1-4, 4-11) [I-293: Ac-PL3-Asp-Ala-B5-Asp-TfeGA-Ala-Ala-Phe-Val-S8-Phe-BztA-Gln-NH2]
IC50 [13]: 140 nM

Binder: Ac-[αAllylPro]D[tBuAla][B5]NTAAFN[PyrS2][3Thi][Bta]A-NH2 (staple 1-4, 4-11; also: earlier eluting HPLC isomer) [I-2142]
IC50 [14]: 271 nM | IC50 [15]: > 20000 nM

Binder: Ac-[αAllylPro]D[tBuAla][B5(4)]DDAAF[hSer][S8]F[Bta]Q-NH2 (staple 1-4, 4-11) [I-1388]
EC50 [16]: 18 nM | IC50 [17]: 18 nM | IC50 [18]: 11300 nM

Binder: Ac-[αAllylPro]D[tBuAla][B5(13)]DDAAFN[PyrS2]F[Bta]H-NH2 (staple 1-4, 4-11) [I-777]
IC50 [19]: 14400 nM | NanoBRET % inh @ 10 uM [20]: 24.5% | EC50 [7]: 5 nM | IC50 [21]: 5 nM

Binder: Ac-[αAllylPro]DA[B5(4)]D[TfeGA]AAFV[S8]F[Bta]Q-NH2 (staple 1-4, 4-11) [I-293]
EC50 [26]: 41 nM | EC50 [27]: 140 nM

Binder: Ac-[αAllylPro]DA[B5(4)]DDAAFV[S8][Phe(4-COOH)][Bta]Q-NH2 (staple 1-4, 4-11; also: earlier-eluting staple isomer) [I-339]
IC50 [28]: 5000 nM | EC50 [29]: 5000 nM

Binder: Ac-[αAllylPro]DA[B5(4)]D[2Nal]AAFQ[S8]F[Bta]Q-NH2 (staple 1-4, 4-11) [I-295]
IC50 [30]: 5000 nM | EC50 [26]: 1180 nM | EC50 [27]: 5000 nM

Binder: Ac-[αAllylPro]D[tBuAla][B5]DDAAFN[PyrS2″][3Thi][Bta][dT]-NH2 (staple 1-4, 4-11) [I-817]
IC50 [31]: 10 nM | EC50 [32]: 10 nM

Binder: Ac-[αAllylPro]D[tBuAla][B5]DDAAFN[PyrS2″][3Thi][Bta][dN]-NH2 (staple 1-4, 4-11) [I-818]
IC50 [31]: 6 nM | IC50 [33]: 15000 nM | EC50 [32]: 6 nM

The remaining lines, values ahead:

IC50 [4]: 234 nM | IC50 [5]: > 20000 nM
B1: I-2599 (peptide)
peptide: 4pentenyl-XD[B5(3)]ADDAAF[PyrS2]L[3Thi][Bta]Q-NH2
modifications: staple 3-10; staple (positions not given here); not fully specified (residue 1, bridges); printed as 4pentenyl-MePro-Asp-B5-Ala-Asp-Asp-Ala-Ala-Phe-PyrS2-Leu-3Thi-BztA-Gln-NH2

IC50 [9]: 6000 nM | IC50 [10]: 27 nM | EC50 [11]: 27 nM
Binder: Ac-[αAllylPro]D[tBuAla][B5(3)]D[TfeGA]AAFF[PyrS2″][Phe(2-Cl)][Bta]Q-NH2 (staple 1-4, 4-11) [I-923]

IC50 [22]: 5 nM | EC50 [23]: 5 nM | NanoBRET % inh @ 10 uM [24]: 32.7%
Binder: Ac-[αAllylPro]D[tBuAla][B5(8)]DDAAFN[PyrS2″][3Thi][Bta]H-NH2 (staple 1-4, 4-11) [I-694]

IC50 [25]: 10000 nM
Binder: Ac-[αAllylPro]D[tBuAla][B5(4)]NTAAFF[PyrS2″][3Thi][Bta]Q-NH2 (staple 1-4, 4-11) [I-1740]

IC50 [22]: 5 nM | EC50 [23]: 5 nM | NanoBRET % inh @ 10 uM [24]: 17%
Binder: Ac-[αAllylPro]DL[B5(8)]DDAAFN[PyrS2″][3Thi][Bta]H-NH2 (staple 1-4, 4-11) [I-696]

IC50 [28]: 5000 nM | EC50 [29]: 5000 nM
Binder: Ac-[αAllylPro]DA[B5(4)]DDAAFV[S8][Phe(4-COOH)][Bta]Q-NH2 (staple 1-4, 4-11; also: later-eluting staple isomer) [I-340]
